Measurements published in patent US20220249679A1 (MITSUBISHI TANABE PHARMA, published 2022).
Where “and” joins values, the source holds several entries; their conditions need not be identical. Equal entries are not always repeated.

T1: Cynomolgus monkey CD138 on transfected Expi293 cells (cynomolgus monkey, UniProt P18827 23-310 (human entry))
T1 construct: also called cyno CD138
T1 chain: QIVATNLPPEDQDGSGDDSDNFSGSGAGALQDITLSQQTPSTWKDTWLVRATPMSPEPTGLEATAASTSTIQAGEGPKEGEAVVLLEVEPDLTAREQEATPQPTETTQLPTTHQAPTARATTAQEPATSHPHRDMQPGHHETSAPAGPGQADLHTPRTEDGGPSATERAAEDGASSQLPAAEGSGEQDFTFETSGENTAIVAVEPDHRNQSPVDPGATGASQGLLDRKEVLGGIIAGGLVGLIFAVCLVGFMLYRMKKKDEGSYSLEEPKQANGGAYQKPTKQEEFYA

T2: Human CD138 His (human, UniProt P18827 23-254)
T2 construct: also called hCD138
T2 sequence: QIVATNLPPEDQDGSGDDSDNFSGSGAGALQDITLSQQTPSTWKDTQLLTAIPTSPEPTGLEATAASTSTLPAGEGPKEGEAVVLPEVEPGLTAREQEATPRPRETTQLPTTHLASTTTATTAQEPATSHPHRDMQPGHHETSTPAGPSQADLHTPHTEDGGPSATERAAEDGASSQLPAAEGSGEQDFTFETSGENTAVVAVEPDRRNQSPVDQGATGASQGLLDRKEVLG

T3: Mouse CD138 (ELISA binding assay, data not shown) (mouse, UniProt P18828 23-255, limits assumed)
T3 construct: Construct used in the ELISA is not described
T3 sequence: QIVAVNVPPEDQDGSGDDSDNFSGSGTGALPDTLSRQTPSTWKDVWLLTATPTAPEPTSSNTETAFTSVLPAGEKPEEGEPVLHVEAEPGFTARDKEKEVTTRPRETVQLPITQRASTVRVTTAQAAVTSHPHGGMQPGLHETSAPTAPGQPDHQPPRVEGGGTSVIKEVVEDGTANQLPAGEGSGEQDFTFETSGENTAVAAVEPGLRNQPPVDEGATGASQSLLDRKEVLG

T4: Mouse CD138 His (mouse, UniProt P18828 23-255)
T4 construct: also called mCD138
T4 sequence: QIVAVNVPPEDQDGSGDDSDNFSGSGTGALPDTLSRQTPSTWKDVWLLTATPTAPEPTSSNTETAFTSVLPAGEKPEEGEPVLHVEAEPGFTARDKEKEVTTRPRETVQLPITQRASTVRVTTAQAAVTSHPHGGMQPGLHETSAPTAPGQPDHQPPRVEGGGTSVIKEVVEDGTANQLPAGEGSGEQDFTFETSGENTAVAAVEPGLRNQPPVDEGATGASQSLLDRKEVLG

T5: Human syndecan-1 (CD138) on the cell surface (human, UniProt P18827 23-310)
T5 construct: Endogenous on H929, KMS-11 and RT112/84 cells or transfected into Expi293 cells; also called human CD138; hCD138
T5 sequence: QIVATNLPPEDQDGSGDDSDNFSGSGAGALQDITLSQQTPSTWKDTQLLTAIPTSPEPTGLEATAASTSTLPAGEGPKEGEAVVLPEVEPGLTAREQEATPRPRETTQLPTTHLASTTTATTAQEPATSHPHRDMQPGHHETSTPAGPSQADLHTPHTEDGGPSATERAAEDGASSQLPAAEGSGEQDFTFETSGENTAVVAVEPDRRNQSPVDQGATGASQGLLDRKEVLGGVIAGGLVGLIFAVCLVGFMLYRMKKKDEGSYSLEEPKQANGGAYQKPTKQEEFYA

T6: Human CD138-Fc protein (human, UniProt P18827 23-254)
T6 construct: also called hCD138-Fc
T6 sequence: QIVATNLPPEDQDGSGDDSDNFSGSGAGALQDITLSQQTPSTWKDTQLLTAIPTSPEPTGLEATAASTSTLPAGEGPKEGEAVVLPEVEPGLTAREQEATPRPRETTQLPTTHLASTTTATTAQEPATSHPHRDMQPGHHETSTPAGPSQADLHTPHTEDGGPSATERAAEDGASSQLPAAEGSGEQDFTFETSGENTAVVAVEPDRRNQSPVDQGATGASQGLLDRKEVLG

T7: hCD138 peptide AGEGPKEGEAVVLP (human)
T7 construct: Portion of the linear CD138 peptide used for immunization; also the peptide in the crystal structure; also called syndecan-1 peptide
T7 peptide: AGEGPKEGEAVVLP

T8: Negative control peptide QAAVTSHPHGGMQPGLHETSA (mouse)
T8 construct: also called mouse CD138 peptide
T8 peptide: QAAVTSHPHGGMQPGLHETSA

T9: Human FGFR3c on transfected CHO cells (human, UniProt P22607 23-375)
T9 sequence: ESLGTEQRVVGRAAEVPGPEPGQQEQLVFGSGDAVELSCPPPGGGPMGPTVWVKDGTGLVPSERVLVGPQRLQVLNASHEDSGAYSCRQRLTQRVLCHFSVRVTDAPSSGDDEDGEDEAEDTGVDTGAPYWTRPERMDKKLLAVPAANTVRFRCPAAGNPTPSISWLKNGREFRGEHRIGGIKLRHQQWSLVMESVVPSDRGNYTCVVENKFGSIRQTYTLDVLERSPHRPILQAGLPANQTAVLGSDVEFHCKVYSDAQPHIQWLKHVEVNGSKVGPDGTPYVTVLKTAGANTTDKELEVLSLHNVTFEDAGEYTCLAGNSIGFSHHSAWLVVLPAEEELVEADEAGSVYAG

T10: Human FGFR3b on transfected CHO cells (human)
T10 chain: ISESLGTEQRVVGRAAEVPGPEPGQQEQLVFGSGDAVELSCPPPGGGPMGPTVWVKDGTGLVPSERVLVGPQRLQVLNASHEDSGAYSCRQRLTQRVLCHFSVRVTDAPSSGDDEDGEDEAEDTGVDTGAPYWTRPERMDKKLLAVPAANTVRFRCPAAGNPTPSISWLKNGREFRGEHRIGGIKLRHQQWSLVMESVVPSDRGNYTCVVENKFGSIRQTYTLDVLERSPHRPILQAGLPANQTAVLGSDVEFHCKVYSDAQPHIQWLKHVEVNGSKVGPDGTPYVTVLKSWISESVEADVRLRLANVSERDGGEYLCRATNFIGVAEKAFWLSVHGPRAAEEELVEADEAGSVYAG

T11: hCD138 (ELISA of Table 29) (human, UniProt P18827 23-254, limits assumed)
T11 construct: also called human CD138
T11 sequence: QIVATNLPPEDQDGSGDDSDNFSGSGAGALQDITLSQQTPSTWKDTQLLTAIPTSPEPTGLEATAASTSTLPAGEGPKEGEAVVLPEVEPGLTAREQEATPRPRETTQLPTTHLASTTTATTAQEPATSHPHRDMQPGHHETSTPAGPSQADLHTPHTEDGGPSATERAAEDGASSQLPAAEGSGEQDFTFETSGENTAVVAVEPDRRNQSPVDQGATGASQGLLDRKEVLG


Tests used:
[1] = target: T1, Cynomolgus monkey CD138 on transfected …; test: FACS titration on Expi293 cells transfected with cynomolgus CD138
Excerpt: Briefly, a vector directing the cell-surface expression of human CD138 or cyno CD138 was transfected in Expi293 cells.

Human CD138 His [2] = target: T2, Human CD138 His; test: SPR, summary table
Experimental: (§1) Murine IgGs were purified from the hybridoma supernatants and the IgGs were subject to SPR (surface plasmon resonance) for kinetic binding measurements. Human or mouse CD138 His was immobilized on a GLM chip at […] on a BioRad Proteon. […] KDs were measured using bivalent analyte fit.

Human CD138 His [3] = target: T2, Human CD138 His; test: SPR (BioRad Proteon), CD138 His immobilized, bivalent analyte fit
Experimental: as §1

[4] = target: T3, Mouse CD138 (ELISA binding assay, data …); test: ELISA binding assay
Mouse CD138 His [5] = target: T4, Mouse CD138 His; test: SPR (BioRad Proteon), mouse CD138 His immobilized, bivalent analyte fit
Experimental: as §1

Mouse CD138 His [6] = target: T4, Mouse CD138 His; test: SPR, summary table
Experimental: as §1

[7] = target: T5, Human syndecan-1 (CD138) on the cell …; test: FACS on RT112/84 cells (previous experiments); RT112/84 bladder cancer cells (printed RT-122/84), previous experiments
Human CD138-Fc protein = target: T6, Human CD138-Fc protein; test: ELISA, plate-coated human CD138-Fc
Experimental: (§2) A CD138 binding ELISA was performed with 9 representative humanized antibodies to determine binding to portion of the linear CD138 peptide used for immunization (FIG. 7). […] Coated plates were incubated with various dilutions of each of the 9 representative antibodies overnight and binding was detected with a goat anti-human IgG (H+L)-HRP. EC50s were determined using four parameter fit curves (Table 21). An ELISA was also performed to detect binding to plate-coated human CD138-Fc protein (Table 21).

[8] = target: T7, hCD138 peptide AGEGPKEGEAVVLP; test: ELISA, plate-coated hCD138 peptide
Experimental: as §2

[9] = target: T5, Human syndecan-1 (CD138) on the cell …; test: FACS on KMS-11 cells (previous experiments); KMS-11 multiple myeloma cells, previous experiments
Mouse CD138 His [10] = target: T4, Mouse CD138 His; test: SPR, mouse CD138 His immobilized
Experimental: as §1

[11] = target: T8, Negative control peptide …; test: told in the method of the peptide ELISA
Experimental: as §2

[12] = target: T9, Human FGFR3c on transfected CHO cells; test: FACS histogram on CHO cells expressing human FGFR3c (panel title FGFR3c K.I.); concentration not given
Excerpt: (§3) CHO cells (Chinese Hamster Ovary cells) were transfected to express the human FGFR3c (FIG. 16A) or human FGFR3b (FIG. 16B) on the cell surface.

[13] = target: T10, Human FGFR3b on transfected CHO cells; test: FACS histogram on CHO cells expressing human FGFR3b (panel title FGFR3b K.I.); concentration not given
Excerpt: as §3

[14] = target: T11, hCD138 (ELISA of Table 29); test: hCD138 ELISA

| Binder | Kd (Human CD138 His [2]) [nM] | Kd (Human CD138 His [3]) | koff (Human CD138 His [3]) [s⁻¹] | kon (Human CD138 His [3]) [M⁻¹ s⁻¹] | further results |
| --- | --- | --- | --- | --- | --- |
| 13P30A7 hIgG1 (antibody, V domains shown, Chimeric antibody: murine variable regions of F13P30A7 with constant regions of human IgG1, kappa isotype; also called chP30A7; chP30a7) VH: EVQLVESGGGLVQPKGSLKLSCAASGFTFNTYAMNWVRQAPGKGLEWIARIRSKSNNYATYYADSVKDRFTISRDDSQSLLYLQMNNLKTEDTAIFYCVTDYGYVYFDAWGAGTTVTVSS VL: NIIMTQSPKSMAMSVGERVTLSCKASENVGNYVSWYQQKPEQSPKLLIYGASYRYTGVPDRFTGSGSGTDFTLTISSVQAEDLADYHCGQSSRYPLTFGAGTKLELKR | – | – | – | – | binding result [1]: binds |
| F13P14D3 (antibody, V domains shown, Murine IgG purified from hybridoma supernatant) VH: EVQLVESGGGLVQPKGSLKLSCATSGFTFNTYAMNWVRQAPGKGLEWVARIRSKSNNYATYYVDSVKDRFTISRDDSQSTVHLQMNNLKTEDTAIYYCVTDYGHVYFDVWGAGTTVTVSS VL: NIVMTQSPKSMSMSVGQRVTLSCKASENVGSYVSWYQQKPEQSPKLLIYGASNRNTGVPDRFTGSGSATDFTLTISSVQAEDLADYHCGQSSRYPLTFGGGTKLELKR | 10 | 9.67 nM and 9.7 nM | 0.00104 | 107000 | binding result [4]: no binding |
| F13P18D8 (antibody, V domains shown, Murine IgG purified from hybridoma supernatant) VH: EVQLLESGGGLVQPEGSLKLSCAASGFAFNTYAMNWVRQAPGKGLEWLARIRSKSNNYATYYADSVKDRFTISRDDSQGMLYLQMNNLKTEDTAMYYCVTDYYYVYFDVWGAGTTVTVSS VL: NIVMTQSPKSMSMSVGERVTLSCKASENVGTYVSWYQQKSDQSPKLLIYGASNRYTGVPDRFTGSGSATDFTLTITSVQSEDLADYHCGQSSRYPLTFGAGTKLELKR | 2 | 1.88 nM and 1.9 nM | 0.000523 | 278000 | binding result [4]: no binding |
| F12P18D4.a (antibody, V domains shown, Murine IgG purified from hybridoma supernatant) VH: EVQLQQSGPELVKPGASVKMSCKASGYTFADYYMKWVKQSHGKSLEWIGDINPNSGDTFYNHKFKGKATLTVDKSSSTAYMQLNSLTSEDSAVYYCARTYYDYWGQGTTLTVSS VL: not shown | 29 | 28.6 nM | 0.018 | 631000 | Kd (Mouse CD138 His [5]): 672 nM; Kd (Mouse CD138 His [6]): 672 nM |
| 12P16F6 hIgG1 (antibody, V domains shown, Chimeric antibody: murine variable regions of F12P16F6 with constant regions of human IgG1, kappa isotype; also called chF6; chP16F6) VH: QVQLQQSGAEVVKPGASVKLSCKASGYTFTSYYLYWVKKGPGQGLDWIGEIYPRSGGTNINEKFLSKATLTADESSSTAYLQLSSLTSEDSAVYYCTRSLLYWGQGTTLIVSS VL: not shown | – | – | – | – | EC50 [7]: ~9 nM; EC50 (Human CD138-Fc protein): 0.471 nM; EC50 [8]: 0.599 nM; EC50 [9]: ~3 nM; binding result [1]: binds |
| F12P16F6 (antibody, V domains shown, Murine hybridoma antibody (IgG); tested as hybridoma supernatant in FACS and as purified murine IgG in SPR) VH: QVQLQQSGAEVVKPGASVKLSCKASGYTFTSYYLYWVKKGPGQGLDWIGEIYPRSGGTNINEKFLSKATLTADESSSTAYLQLSSLTSEDSAVYYCTRSLLYWGQGTTLIVSS VL: not shown | 21 | 21 nM | 0.00117 | 55700 | binding result (Mouse CD138 His [10]): no binding (tested: 167 nM); binding result [11]: no binding |
| hF6-HN-G7 (bispecific antibody, human IgG1, kappa, G7 Fynomer fused through the linker to the N-terminus of the hF6 heavy chain; IgG1/kappa) heavy: not shown light: DVVMTQTPLSLSVTPGQPASISCKSSQSLLASDGKTYLNWLLQRPGQSPKRLIYLVSKLDSGVPNRFSGSGSGTDFTLQISRVEAEDVGLYYCWQGAHFPFTFGSGTKLEIKRTVAAPSVFIFPPSDEQLKSGTASVVCLLNNFYPREAKVQWKVDNALQSGNSQESVTEQDSKDSTYSLSSTLTLSKADYEKHKVYACEVTHQGLSSPVTKSFNRGEC | – | – | – | – | binding result [12]: binds; binding result [13]: binds; EC50 [14]: 0.69 nM |
